Reference: the supplement of paper PMC10567573

B1: SETD8 (parent)
chain: GKQAPRKKAQGKTQQNRKLTDFYP
B2: C2orf65 (parent)
chain: QLDWDELETNQQHFHALCHSLLVS

Variants of: B1
Assay: protein stability index of a GFP-peptide fusion (GPS, HEK-293T) (PSI 1-6); higher = more stable
Conditions: c terminus: a fixed tail appended
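Also: lentivirally expressed fusions sorted by FACS into six bins by GFP to DsRed ratio, PSI derived from sequencing read proportions per bin multiplied by bin number.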

Protein stability index: each site, then its substitutions
Q15: N 3.07 | S 3.26
N16: A 3.02 | E 3.65 | F 2.68 | I 3.13 | K 2.91 | M 3.37 | P 2.45 | S 4.04 | T 2.53 | V 3.57 | Y 1.96
R17: C 2.96 | D 3.8 | E 3.13 | F 2.88 | G 3.91 | H 2.88 | I 3.68 | K 2.59 | L 2.32 | N 3.34 | P 3.06 | T 2.61
K18: A 3.15 | C 2.89 | D 4.87 | E 3.2 | F 3.85 | H 2.69 | I 4.29 | L 2.56 | M 2.06 | N 4.19 | P 2.96 | Q 3.45 | S 3.51 | T 3.05 | V 3.75 | Y 2.76
L19: A 4.54 | D 5.33 | E 4.62 | F 3.27 | G 3.91 | H 3.77 | K 4 | N 4.73 | Q 3.84 | R 4.33 | S 4.39 | W 2.97 | Y 3.32
T20: C 2.54 | D 4.5 | E 4.22 | F 3.06 | H 3.94 | I 3.29 | K 3.54 | M 4.3 | N 3.61 | P 4.41 | Q 4.11
D21: A 3.03 | C 4.41 | E 1.79 | F 2.59 | H 3.57 | I 3.13 | K 3.91 | L 3.53 | M 3.46 | N 3.24 | P 3.83 | R 3.46 | T 3.9 | V 3.21 | Y 2.97
F22: A 4.61 | D 3.15 | E 4.61 | G 4.75 | H 4.13 | I 4.13 | K 4.97 | L 4.51 | M 4.7 | N 4.77 | P 4.98 | Q 4.17 | R 3.6 | S 4.69 | T 4.57
Y23: C 4.28 | D 4.64 | E 4.51 | G 4.34 | H 4.93 | I 4.07 | K 5.33 | L 3.96 | N 4.83 | P 4.44 | Q 4.04 | S 4.39 | T 5.12 | V 4.05
P24: A 2.66 | C 3.62 | D 4.33 | F 3.48 | G 4.31 | H 4.02 | I 3.44 | K 3.09 | L 3.56 | M 4.09 | N 2.18 | Q 3.65 | R 2.67 | S 3.43 | W 1.91 | Y 2.73

Variants of: B2
Assay: as above
Conditions: c terminus: a fixed tail appended

Protein stability index: each site, then its substitutions
Q1: A 2.11 | C 1.65 | D 2.67 | E 2.29 | F 1.81 | G 2.55 | H 2.22 | I 1.5 | K 1.75 | L 1.64 | M 2.46 | N 2.25 | P 2.48 | R 1.96 | S 2.21 | T 2.06 | V 2.5 | W 1.51 | Y 1.68
L2: A 2.68 | C 1.95 | D 2.55 | E 2.97 | F 1.98 | G 2.33 | H 2.51 | I 1.78 | K 2.4 | M 1.94 | N 2.31 | P 3.02 | Q 2.42 | R 2.25 | S 2.17 | T 2.02 | V 2.31 | W 1.63 | Y 1.64
D3: A 2.27 | C 1.85 | E 2.27 | F 1.93 | G 2.85 | H 1.92 | I 2.23 | K 1.83 | L 1.45 | M 1.05 | N 2.01 | P 2.07 | Q 2.1 | R 1.85 | S 1.57 | T 2.59 | V 1.73 | W 3.03 | Y 1.47
W4: A 2.93 | C 3.19 | D 3.18 | F 2.54 | G 2.99 | H 2.69 | I 3.03 | K 2.85 | L 2.4 | M 2.98 | N 2.78 | P 2.02 | Q 3.35 | R 2.77 | S 3.2 | T 3.14 | V 3.11 | Y 2.56
D5: A 2.01 | C 1.55 | E 2.54 | F 2.47 | G 2.07 | H 2.04 | I 1.58 | K 2 | L 1.22 | M 1.95 | N 1.49 | P 2.34 | Q 1.57 | R 1.95 | S 1.83 | T 2.18 | V 1.66 | W 1.18 | Y 2.31
E6: A 2.04 | C 1.95 | D 1.9 | F 3.45 | G 2.13 | H 1.57 | I 1.81 | K 1.46 | L 2.34 | M 1.83 | N 1.79 | P 2.5 | Q 1.84 | R 1.96 | S 1.66 | T 1.82 | V 2.32 | W 2.55 | Y 1.44
L7: A 2.33 | C 2.5 | D 3.63 | E 3.03 | F 2.13 | G 2.6 | H 2.18 | I 1.82 | K 2.79 | M 1.94 | N 2.84 | P 2.84 | Q 2.79 | R 2.16 | S 2.8 | T 2.16 | V 2.36 | W 1.33 | Y 2.27
E8: A 1.57 | C 1.59 | D 2.11 | F 1.57 | G 1.64 | H 1.95 | I 2.01 | K 1.39 | L 2.31 | M 2.73 | N 2.07 | P 1.87 | Q 1.89 | R 1.99 | S 1.67 | T 1.61 | V 1.21 | W 2.9 | Y 1.87
T9: A 2.71 | C 2.21 | D 2.39 | E 2.88 | F 1.8 | G 2.07 | H 2.54 | I 1.69 | K 1.97 | L 1.52 | M 2.35 | N 1.56 | P 1.91 | Q 2.75 | R 1.61 | S 2.37 | V 3.67 | W 1.81 | Y 1.84
N10: A 2.04 | C 1.76 | D 2.87 | E 2.33 | F 1.69 | G 2.82 | H 2.17 | I 2.19 | K 2 | L 1 | M 2.18 | P 2.31 | Q 2.07 | R 2.81 | S 2.2 | T 1.55 | V 1.62 | W 2.25 | Y 1.99
Q11: A 1.66 | C 1.9 | D 2.56 | E 2.39 | F 2.13 | G 2.62 | H 2.07 | I 1.39 | K 1.97 | L 2.23 | M 2.39 | N 2.34 | P 2.02 | R 2.29 | S 1.79 | T 2.04 | V 1.45 | W 2.01 | Y 1.39
Q12: A 1.84
